{
  "source": "patent US20080124811A1",
  "about": "(AbbVie / Abbott, published 2008)",
  "binders": {"B1": {"name": "106.3 AM1 chimeric antibody (antibody, V domains shown)", "VH": "QIQLVQSGPELRKPGETVKISCKGSGYTFTHYGINWVKQTPRKDLKWMGWINTHTGEAYYADDFKGRFAFSLETSANTAYLQINNLNNGDMGTYFCTRSHRFGLDYWGQGTSVTVSS", "VL": "DNVLTQSPPSLAVSLGQRATISCKANWPVDYNGDSYLNWYQQKPGQPPKFLIYAASNLESGIPARFSGSGSGTDFNLNIHPVEEEDAATYYCQQSNEDPFTFGSGTKLEIK", "modifications": "Conjugated to acridinium or biotinylated in the sandwich assays (Examples 4 and 7); the sites are not defined.", "notes": "PTA-6987; Acridinium-conjugated or biotinylated in the sandwich assays"}, "B2": {"name": "H2 288 (scFv)", "scFv (VH-linker-VL with V5 and 6His tags), displayed on yeast": "QLVQSGPELRKPGETVKISCKGSGYTFTHYGINWVKQTPRKDLKWMGWINTHTGEAYYADDFKGRFAFSLETSANTAYLQINNLNNGDMGTYFCTRSHRFGLDYWGQGTSVTVSSGPAKELTPLKEAKVSDNVLTQSPPSLAVSLGQRATISCKASQSVDYNGDSYLNWYQQKPGQPPKFLIYAASNLESGIPARFSGSGSGTDFNLNIHPVEEEDAATYYCQQSNEDPFTFGSGTKLEIKRAAALESRGPFEGKPIPNPLLGLDSTRTGHHHHHH", "notes": "member of group m4"}, "B3": {"name": "monoclonal antibody 3-631-436 (wild-type mouse mAb from hybridoma cell line 3-631-436, A.T.C.C. PTA-6476) (antibody, V domains shown)", "VH": "QVQLQQPGAELVRPGASVKLSCKASGYTFTSYWMNWVKQRPEQGLEWIGRIDPYDSETHYNQKFKDKAILTVDKSSSTAFVQLTSLTSEDSAVYYCVSDGYWGAGTTVTVSS", "VL": "DVVMTQTPLTLSVTTGQPASISCKSSQSLLDSDGKTYLNWLFQRPGESPKLLIYVVSKLESGVPDRFTGSGSGTDFTLKISRVEAEDLGVYYCLQATHFPWTFGGGTKLEIK", "modifications": "In the sandwich assays the antibody was coupled to particles, biotinylated or acridinium-labelled; the letters do not carry this.", "notes": "the whole entry is named for each chain and must be cut at the linker; Coated on particles, biotinylated or acridinium-conjugated in the sandwich assays"}, "B4": {"name": "106.3 single-chain variable fragment (scFv), unmutated, on yeast (scFv)", "chain": "QIQLVQSGPELRKPGETVKISCKGSGYTFTHYGINWVKQTPRKDLKWMGWINTHTGEPIYADDFKGRFAFSLETSANTAYLQINNLNNGDMGTYFCTRSHRFGLDYWGQGTSVTVSSGPAKELTPLKEAKVSDNVLTQSPPSLAVSLGQRATISCKASQSVDYNGDSYLNWYQQKPGQPPKFLIYAASNLESGIPARFSGSGSGTDFNLNIHPVEEEDAATYYCQQSNEDPFTFGSGTKLEIK"}, "B5": {"name": "3-631-436 scFv, unmutated, on yeast (scFv)", "scFv": "QVQLQQPGAELVRPGASVKLSCKASGYTFTSYWMNWVKQRPEQGLEWIGRIDPYDSETHYNQKFKDKAILTVDKSSSTAFVQLTSLTSEDSAVYYCVSDGYWGAGTTVTVSSGPAKELTPLKEAKVSDVVMTQTPLTLSVTTGQPASISCKSSQSLLDSDGKTYLNWLFQRPGESPKLLIYVVSKLESGVPDRFTGSGSGTDFTLKISRVEAEDLGVYYCLQATHFPWTFGGGTKLEIKRAAALESRGPFEGKPIPNPLLGLDSTRTGHHHHHH"}},
  "key": {"[1]": {"molecular_target": "T1, human brain natriuretic peptide, cyclic BNP (1-32c) (human, cyclic: ring closed by a disulfide bond between the two cysteine residues; biotinylated or acridinium-labelled in some assays)", "T1 construct": "also called hBNP; hBNP 1-32", "test": "KinExA, solution phase"}, "[2]": {"molecular_target": "T1, human brain natriuretic peptide, cyclic …", "test": "BIAcore SPR, cAb captured on goat anti-human Fc, BNP in solution, 25 C"}, "[3]": {"molecular_target": "T1, human brain natriuretic peptide, cyclic …", "test": "… sandwich CMIA; capture 106.3AM1 on microparticles, detection 3-631-436-acridinium"}, "[4]": {"molecular_target": "T1, human brain natriuretic peptide, cyclic …", "test": "… sandwich CMIA; capture 106.3AM1 on microparticles, detection 3-631-436-acridinium; second particle type"}, "[5]": {"molecular_target": "T1, human brain natriuretic peptide, cyclic …", "test": "off-rate assay on yeast-displayed scFv; improvement of koff over 106.3 wt"}, "[6]": {"molecular_target": "T1, human brain natriuretic peptide, cyclic …", "test": "off-rate assay on yeast-displayed scFv by flow cytometry: biotinylated cyclic BNP (1-32c), chase with unlabelled BNP 1-32c, SA:PE, first order decay fit"}, "[7]": {"molecular_target": "T1, human brain natriuretic peptide, cyclic …", "test": "KinExA, solution phase", "remark": "listed apart in the source"}, "[8]": {"molecular_target": "T1, human brain natriuretic peptide, cyclic …", "test": "BIAcore SPR, antibody captured on goat anti-mouse Fc, BNP in solution, 25 C"}, "[9]": {"molecular_target": "T1, human brain natriuretic peptide, cyclic …", "test": "… sandwich CMIA; capture 3-631-436 on microparticles, detection 106.3AM1-acridinium"}, "[10]": {"molecular_target": "T1, human brain natriuretic peptide, cyclic …", "test": "… sandwich CMIA; capture 3631436 ms on microparticles, detection 106.3AM2-acridinium"}, "[11]": {"molecular_target": "T1, human brain natriuretic peptide, cyclic …", "test": "Biacore SPR, antibody captured on goat anti-mouse Fc, BNP injected, 1:1 Langmuir fit"}, "[12]": {"molecular_target": "T1, human brain natriuretic peptide, cyclic …", "test": "… sandwich CMIA; capture 3-631-436 on microparticles, detection 106.3AM1-acridinium; second particle type"}, "[13]": {"molecular_target": "T1, human brain natriuretic peptide, cyclic …", "test": "yeast display off-rate assay, flow cytometry; t1/2 = ln 2/koff"}, "[14]": {"molecular_target": "T1, human brain natriuretic peptide, cyclic …", "test": "off-rate assay on yeast-displayed scFv by flow cytometry: biotinylated cyclic BNP (1-32c), chase with unlabelled BNP 1-32c, SA:PE; m2 of the first order decay fit (error 3.6694e-06, R 0.9993), time axis in sec"}, "[15]": {"molecular_target": "T1, human brain natriuretic peptide, cyclic …", "test": "scFv on yeast; method not described; printed unit µM read as pM (26 pM is said to be 10-fold lower)"}, "[16]": {"molecular_target": "T1, human brain natriuretic peptide, cyclic …", "test": "yeast display off-rate assay, flow cytometry, biotinylated cyclic BNP chased with unlabelled BNP, first order decay fit"}, "[17]": {"molecular_target": "T1, human brain natriuretic peptide, cyclic …", "test": "off-rate assay on yeast-displayed scFv by flow cytometry: biotinylated cyclic BNP (1-32c), chase with unlabelled BNP 1-32c, SA:PE, first order decay fit", "remark": "listed apart in the source"}, "[18]": {"molecular_target": "T1, human brain natriuretic peptide, cyclic …", "test": "off-rate assay on yeast-displayed scFv by flow cytometry: biotinylated cyclic BNP (1-32c), chase with unlabelled BNP 1-32c, SA:PE; m2 of the first order decay fit (error 0.00087362, R 0.98912), time axis in sec"}},
  "data": [
    {"binder": "B1", "values": [
      {"measurement": "Kd", "setting": "[1]", "value": 9.3, "unit": "pM"},
      {"measurement": "Kd", "setting": "[2]", "value": 1.9, "unit": "pM"},
      {"measurement": "koff", "setting": "[2]", "value": "2.4e-05", "unit": "s⁻¹"},
      {"measurement": "kon", "setting": "[2]", "value": "1.3e+07", "unit": "M⁻¹ s⁻¹"},
      {"measurement": "Ratio B/A (RLU at 30 pg/mL over 0 pg/mL)", "setting": "[3]", "value": 1.6},
      {"measurement": "Ratio C/A (RLU at 300 pg/mL over 0 pg/mL)", "setting": "[3]", "value": 17.5},
      {"measurement": "Ratio D/A (RLU at 1000 pg/mL over 0 pg/mL)", "setting": "[3]", "value": 126},
      {"measurement": "Ratio E/A (RLU at 2000 pg/mL over 0 pg/mL)", "setting": "[3]", "value": 394},
      {"measurement": "Ratio B/A (RLU at 30 pg/mL over 0 pg/mL)", "setting": "[4]", "value": 1},
      {"measurement": "Ratio C/A (RLU at 300 pg/mL over 0 pg/mL)", "setting": "[4]", "value": 5.5},
      {"measurement": "Ratio D/A (RLU at 1000 pg/mL over 0 pg/mL)", "setting": "[4]", "value": 40.5},
      {"measurement": "Ratio E/A (RLU at 2000 pg/mL over 0 pg/mL)", "setting": "[4]", "value": 132}
    ]},
    {"binder": "B2", "values": [
      {"measurement": "Fold Improvement", "setting": "[5]", "value": 2.3, "unit": "fold"},
      {"measurement": "koff", "setting": "[6]", "value": "3.7e-05", "unit": "s⁻¹"}
    ]},
    {"binder": "B3", "values": [
      {"measurement": "Kd", "setting": "[7]", "value": 286, "unit": "pM"},
      {"measurement": "Kd", "setting": "[8]", "value": 380, "unit": "pM"},
      {"measurement": "koff", "setting": "[8]", "value": 0.0025, "unit": "s⁻¹"},
      {"measurement": "kon", "setting": "[8]", "value": "6.7e+06", "unit": "M⁻¹ s⁻¹"},
      {"measurement": "Ratio B/A (RLU at 30 pg/mL over 0 pg/mL)", "setting": "[9]", "value": 1.9},
      {"measurement": "Ratio C/A (RLU at 300 pg/mL over 0 pg/mL)", "setting": "[9]", "value": 27.8},
      {"measurement": "Ratio D/A (RLU at 1000 pg/mL over 0 pg/mL)", "setting": "[9]", "value": 196},
      {"measurement": "Ratio E/A (RLU at 2000 pg/mL over 0 pg/mL)", "setting": "[9]", "value": 471},
      {"measurement": "Ratio B/A (RLU at 30 pg/mL over 0 pg/mL)", "setting": "[10]", "value": 2.7},
      {"measurement": "Ratio C/A (RLU at 300 pg/mL over 0 pg/mL)", "setting": "[10]", "value": 14.3},
      {"measurement": "Ratio D/A (RLU at 1000 pg/mL over 0 pg/mL)", "setting": "[10]", "value": 32.4},
      {"measurement": "Ratio E/A (RLU at 2000 pg/mL over 0 pg/mL)", "setting": "[10]", "value": 198},
      {"measurement": "Ratio F/A (RLU at 5000 pg/mL over 0 pg/mL)", "setting": "[10]", "value": 595},
      {"measurement": "Kd", "setting": "[11]", "value": 375, "unit": "pM"},
      {"measurement": "Ratio B/A (RLU at 30 pg/mL over 0 pg/mL)", "setting": "[12]", "value": 2.4},
      {"measurement": "Ratio C/A (RLU at 300 pg/mL over 0 pg/mL)", "setting": "[12]", "value": 23.9},
      {"measurement": "Ratio D/A (RLU at 1000 pg/mL over 0 pg/mL)", "setting": "[12]", "value": 145},
      {"measurement": "Ratio E/A (RLU at 2000 pg/mL over 0 pg/mL)", "setting": "[12]", "value": 409}
    ]},
    {"binder": "B4", "values": [
      {"measurement": "half-life (t1/2)", "setting": "[13]", "value": 2.28, "unit": "h"},
      {"measurement": "koff", "setting": "[6]", "value": "8.4e-05", "unit": "s⁻¹"},
      {"measurement": "koff", "setting": "[14]", "value": "8.44e-05", "unit": "s⁻¹"}
    ]},
    {"binder": "B5", "values": [
      {"measurement": "half-life (t1/2)", "setting": "[13]", "value": 0.04, "unit": "h"},
      {"measurement": "Kd", "setting": "[15]", "value": "~260", "unit": "pM"},
      {"measurement": "koff", "setting": "[16]", "value": 0.0047, "unit": "s⁻¹"},
      {"measurement": "koff", "setting": "[17]", "value": 0.0048, "unit": "s⁻¹"},
      {"measurement": "koff", "setting": "[18]", "value": 0.00474, "unit": "s⁻¹"}
    ]}
  ]
}
